# Measured values from the supplement of paper PMC7125110.
# ± gives the standard error. For some assays here: This sample holds only a part of the variants without activity.
# B1: glmS ribozyme (parent)
# chain: AUAAAAGCGCCAGAACUACAGAAAUGUAGUUGACGAGGAGGAGGUUUAUCGAAUUUUCGGCGGAUGCCUCCAAA
# Assays:
# Conditions in all cases: with glucosamine-6-phosphate
# [1] = variants of: B1; experiment: kcat; higher = faster cleavage; RNA array
# Method in brief: (§1)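 kcat and KM were obtained from weighted Michaelis–Menten fits across concentrations of kobs values. Those came from one- or two-exponential decay fits to per-tile medians normalised to baseline and to non-cleaving reference variants. The variants were barcoded ribozymes transcribed in situ by E. coli RNA polymerase on sequenced MiSeq chips and tracked through a hybridised Cy3 probe at 37 °C, with 40 μM to 10 mM glucosamine-6-phosphate in HEPES/KCl/Mg(OAc)2 buffer flowed in.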
# [2] = variants of: B1; experiment: KM; higher = weaker cofactor use; RNA array
# Method in brief: as §1
# [3] = variants of: B1; experiment: self-cleavage kobs at 40 uM GlcN6P; higher = faster cleavage; RNA array
# Method in brief: as §1
# [4] = variants of: B1; experiment: self-cleavage kobs at 2500 uM GlcN6P; higher = faster cleavage; RNA array
# Method in brief: as §1
# [5] = variants of: B1; experiment: self-cleavage kobs at 10000 uM GlcN6P; higher = faster cleavage; RNA array
# Method in brief: as §1
# [6] = variants of: B1; experiment: self-cleavage kobs at 640 uM GlcN6P; higher = faster cleavage; RNA array
# Method in brief: as §1
# [7] = variants of: B1; experiment: self-cleavage kobs at 160 uM GlcN6P; higher = faster cleavage; RNA array
# Method in brief: as §1
Variant,kcat [1],KM [2],self-cleavage kobs at 40 uM GlcN6P [3],self-cleavage kobs at 2500 uM GlcN6P [4],self-cleavage kobs at 10000 uM GlcN6P [5],self-cleavage kobs at 640 uM GlcN6P [6],self-cleavage kobs at 160 uM GlcN6P [7]
AUAAAAGCGCCAGAACUACAGAAAUGUAGUUGACGAGGAGGAGGUUUAUCGAAUUUUCGGCGGCUGCCUUCAAA [A64C C70U],5.98e-05 ± 9.8e-07 s⁻¹,1590 ± 110 µM,< 1e-05 s⁻¹,3.63e-05 ± 9.6e-06 s⁻¹,5.16e-05 ± 6.8e-06 s⁻¹,–,–
AUAAAAGCGCCAGAACUACAGAAAUGUACUUGACGAGGAGGAGGUUGAUCGAAUUUUCGGCGGAUGCCUCCAAA [G29C U47G],0.000341 ± 9.9e-05 s⁻¹,–,–,0.000393 ± 8.4e-05 s⁻¹,0.000269 ± 4.6e-05 s⁻¹,7.76e-05 ± 1.8e-05 s⁻¹,–
AUAAAAGCGCCAGAACUACAGAAAUGUAUUUGACGAGGAGGAGGUUUAUCGAAUUUUCGGCGGAUGCUUCCAAA [G29U C68U],0.0008 ± 6.2e-05 s⁻¹,1710 ± 230 µM,2.51e-05 ± 1e-05 s⁻¹,0.000435 ± 5.5e-05 s⁻¹,0.000719 ± 7.8e-05 s⁻¹,0.00022 ± 2.5e-05 s⁻¹,6.87e-05 ± 1e-05 s⁻¹
AUAAAAGCGCCAGAACUACAGAAAUGUAGUUGACGAGGAGGAGGUUUAUCGGAUUUACGGCGGAUGCCUCCAAA [A52G U57A],0.000484 ± 0.00016 s⁻¹,–,–,0.00023 ± 2.4e-05 s⁻¹,0.000289 ± 8e-05 s⁻¹,6.62e-05 ± 9.6e-06 s⁻¹,4.1e-05 ± 1.6e-05 s⁻¹
AUAAAAGCGCCAGAGCUACAGAAAUGUAGUUGACGAGGAGGAGGGUUAUCGAAUUUUCGGCGGAUGCCUCCAAA [A15G U45G],0.00832 ± 0.00089 s⁻¹,1730 ± 260 µM,0.000211 ± 3.4e-05 s⁻¹,0.0044 ± 0.00084 s⁻¹,0.00741 ± 0.001 s⁻¹,0.0024 ± 0.00037 s⁻¹,0.000643 ± 9.8e-05 s⁻¹
AUAAAAGCGCCAGAACUACAGAAAUGUAGUUGACGAGGCGGAGGUUUAUCGAAUUUUCGGCGGAUCCCUCCAAA [A39C G66C],0.00165 ± 0.00036 s⁻¹,2780 ± 960 µM,3.24e-05 ± 1.1e-05 s⁻¹,0.00104 ± 0.00017 s⁻¹,0.0012 ± 0.00016 s⁻¹,0.000348 ± 6.6e-05 s⁻¹,7.03e-05 ± 1.6e-05 s⁻¹
AUAAAAGCGCCAGAACUACAGAAAUGUAUUUGACGAGGAGGAGGUUUAUUGAAUUUUCGGCGGAUGCCUCCAAA [G29U C50U],1.34e-05 ± 9.1e-07 s⁻¹,3520 ± 700 µM,–,–,–,–,< 1e-05 s⁻¹
